Target: CD8+ T cells among expanded tumor infiltrating lymphocytes (TIL) of a lung adenocarcinoma patient (H)
Test: flow cytometry, tetramer staining of expanded TILs of one patient

Substance: KRAS-G12V/HLA-A*11:01 tetramer (from UniProt P61769 21-119) (peptide-MHC)
- percent of CD8+ T cells binding the tetramer: > 66%
